This is an account of results in FireProtDB (doi:10.1038/s41589-020-0556-3).

The labels stand for the following.
B1: Barstar, P11540 (parent)
chain: MKKAVINGEQIRSISDLHQTLKKELALPEYYGENLDALWDCLTGWVEYPLVLEWRQFEQSKQLTENGAESVLQVFREAKAEGCDITIILS

This data set covers variants of B1. Particulars: Bacillus amyloliquefaciens; pH 7.5; 25 °C; Urea; fluorescence; HEPES; KCL / MgOAc 150000 / 15000; transition: 2; structure 1BTA; whole UniProt chain shown.

Where “and” joins values, the source holds several entries; their conditions need not be identical. Equal entries are not always repeated.

Consider MKKAVINGEQIRSISDLHQTLKKELALPEYYGENLDALWDCLTGWVEYPLVLEWRQFEQSKQLTENGAESVLQVFREAAAEGCDITIILS [K79A], for which the denaturant m value is 0.89 kcal/mol/M and 0.48 kcal/mol/M; the “denaturant midpoint (higher = more stable)” value (from here on “denaturant midpoint”) is 4.65 M and 4.24 M; the unfolding free energy turned out to be 4.16 kcal/mol.

As for MKKAVINGEQIRSISDLHQTLKKELALPEYYGENLDALWDCLTGWVEYPLVLEWRQFEQSAQLTENGAESVLQVFREAKAAGCDITIILS [K61A E81A], the denaturant m value was 1.16 kcal/mol/M and 0.7 kcal/mol/M; the “denaturant midpoint” value was 6.02 M and 3.72 M; the unfolding free energy was determined as 6.99 kcal/mol.

On to MKAAVINGEQIRSISDLHQTLKKELALPEYYGENLDALWDCLTGWVEYPLVLEWRQFEQSKQLTENGAESVLQVFREAKAEGCDITIILS [K3A], for which the denaturant m value is 1.06 kcal/mol/M and 0.59 kcal/mol/M; the “denaturant midpoint” value was 4.97 M and 2.52 M; the unfolding free energy was 5.27 kcal/mol.

On to MKKAVINGEQIRSISDLHQTLKKELALPEYYGENLDALWDCLTGWVEYPLVLEWRQFEQSAQLTENGAESVLQVFREAKAEGCDITIILS [K61A], for which the denaturant m value was 0.96 kcal/mol/M and 0.68 kcal/mol/M; the “denaturant midpoint” value was 4.41 M and 2.51 M; the unfolding free energy stood at 4.25 kcal/mol.
